Source: US20220280636A1

Key:
[1] = target: human whole molecule IgG (human); test: SPR; IgG amine coupled to CM5 chip, construct flowed at 750 ug/ml; end-point RU of association phase
human IgG Fc (human) [2] = test: as above
[3] = target: mouse whole molecule IgG (mouse); test: as above
[4] = target: guinea pig whole molecule IgG (guinea pig); test: as above
[5] = target: rabbit whole molecule IgG (rabbit); test: as above
[6] = target: human whole molecule IgG (human); test: SPR; IgG amine-coupled to CM5 chip, construct flowed at 750 ug/ml; end-point RU of association phase
human IgG Fc (human) [7] = test: as above
[8] = target: rabbit whole molecule IgG (rabbit); test: as above
[9] = target: human whole molecule IgG (human); test: as above; remark: listed apart in the source
human IgG Fc (human) [10] = test: as above; remark: listed apart in the source
[11] = target: rabbit whole molecule IgG (rabbit); test: as above; remark: listed apart in the source

Row | Substance | RU Post Association [1] [RU] | RU Post Association (human IgG Fc (human) [2]) [RU] | RU Post Association [3] [RU] | RU Post Association [4] [RU] | RU Post Association [5] [RU] | RU Post Association [6] [RU] | RU Post Association (human IgG Fc (human) [7]) [RU] | RU Post Association [8] [RU] | RU Post Association [9] [RU] | RU Post Association (human IgG Fc (human) [10]) [RU] | RU Post Association [11] [RU]
1 | gE-2t 405/gI-2t 262 (from UniProt P89475 21-402; P06764 21-262) | 142 | 100 | 8 | 9 | 165 |  |  |  |  |  | 
2 | gE-1t 419/gI-1t 269 (from UniProt P04488 21-419; P06487 21-276) | 232 | 216 | 11 | 19 | 195 |  |  |  |  |  | 
3 | gE-2t 405 (from UniProt P89475 21-402) | 8 | 5 | 4 | 5 | 6 |  |  |  |  |  | 
4 | gE-2t 24-405 (from UniProt P89475 23-402) | 7 | 8 | 4 | 5 | 6 |  |  |  |  |  | 
5 | gE-2t 414/gI-2t 262 (from UniProt P89475 21-411; P06764 21-262) | 79 | 53 | 5 | 4 | 75 |  |  |  |  |  | 
6 | gD-2t 339 (from UniProt Q69467 26-339) | 2 | 4 | 4 | 2 | 11 | 4 | 2 | 1 | 3 | 1 | 2
7 | gE-2t 417/gI-2t 262 (from UniProt P89475 21-414; P06764 21-262) | 52 | 41 | 10 | 9 | 46 | 133 | 98 | 138 | 53 | 43 | 45
8 | gE-2t 24-405/gI-2t 262 (from UniProt P89475 23-402; P06764 21-262) | 136 | 95 | 6 | 8 | 142 |  |  |  |  |  | 
